Values belong to the binder of their own block, whether it stands above or below them.
Target: Full-length isoform 165 of human VEGF-A (human) (UniProt P15692)
Experiment: SPR; Biacore T200, 25 °C, PBS with 0.05% Tween 20 and 3.4 mM EDTA; VEGF-A amine-coupled to a CM-5 chip; Fab injected in single cycle kinetics with five increasing concentrations; double referenced; fit to a 1:1 Langmuir binding model

Sequence of Full-length isoform 165 of human VEGF-A (human) (P15692 other isoform, or with tags, fused parts or gaps): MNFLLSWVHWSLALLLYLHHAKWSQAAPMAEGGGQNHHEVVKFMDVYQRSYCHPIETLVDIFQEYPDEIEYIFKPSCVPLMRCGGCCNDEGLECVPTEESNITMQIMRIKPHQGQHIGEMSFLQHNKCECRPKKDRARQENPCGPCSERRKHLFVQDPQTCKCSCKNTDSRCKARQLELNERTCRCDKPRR

Kd: 8 nM
B1: bH1 Fab H3 variant 16_0325 (Fab, V domains shown)
VH: EVQLVESGGGLVQPGGSLRLSCAASGFNIKDTYIHWVRQAPGKGLEWVARIYPTNGYTRYADSVKGRFTISADTSKNTAYLQMNSLRAEDTAVYYCARGGAVAGTGVYYFDYWGQGTLVTVSS
VL: DIQMTQSPSSLSASVGDRVTITCRASQDIPRSISGYVAWYQQKPGKAPKLLIYWGSYLYSGVPSRFSGSGSGTDFTLTISSLQPEDFATYYCQQHYTTPPTFGQGTKVEIK

Kd: 8 nM
B2: bH1 Fab H3 variant 14_0112 (Fab, V domains shown)
VH: EVQLVESGGGLVQPGGSLRLSCAASGFNIKDTYIHWVRQAPGKGLEWVARIYPTNGYTRYADSVKGRFTISADTSKNTAYLQMNSLRAEDTAVYYCAKGGSSSGPYHFEYWGQGTLVTVSS
VL: B1 VL
